Results on 2 molecules are retold here after PMC9748339, “Co-crystalization reveals the interaction between AtYchF1 and ppGpp” (Frontiers in Molecular Biosciences, 2022).

As usually defined, the Km is the concentration of substrate that gives half-maximal velocity. For orientation: Vmax means the top rate of the reaction or transport when substrate is in excess.

One data set deals with T1, MBP-AtYchF1 (Arabidopsis thaliana, UniProt Q9SA73).
T1 construct: gene YchF1; AtYchF1 cDNA in pMAL-C2, N-terminal MBP tag kept, E. coli BL21 (DE3)
T1 sequence (Q9SA73 1-394): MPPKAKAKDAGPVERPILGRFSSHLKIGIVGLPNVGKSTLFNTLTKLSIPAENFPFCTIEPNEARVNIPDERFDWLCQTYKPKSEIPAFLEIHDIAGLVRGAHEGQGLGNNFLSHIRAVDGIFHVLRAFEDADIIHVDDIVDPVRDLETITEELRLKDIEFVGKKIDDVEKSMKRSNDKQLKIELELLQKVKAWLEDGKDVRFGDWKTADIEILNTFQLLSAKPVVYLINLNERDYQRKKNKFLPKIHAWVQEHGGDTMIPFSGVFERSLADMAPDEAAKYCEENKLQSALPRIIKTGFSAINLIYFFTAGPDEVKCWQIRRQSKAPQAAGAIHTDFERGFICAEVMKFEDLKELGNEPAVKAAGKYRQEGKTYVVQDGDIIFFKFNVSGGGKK
Kind of data set: competition with Mant-GTP or Mant-ATP, fluorescence […]-500 nm. It is filed as binding. The following applies: 31 μM Mant-GTP or Mant-ATP; about 100 μM MBP-AtYchF1; competitive.

Substrate in data set [1]: Nc1ncnc2c1ncn2[C@@H]1O[C@H](COP(=O)(O)OP(=O)(O)OP(=O)(O)O)[C@@H](O)[C@H]1O
Kind of data set: purified protein. It counts as biochemical, Arabidopsis thaliana. To be noted: 300 μM MBP-AtYchF1; Pi release.

Substrate in data set [2]: Nc1nc2c(ncn2[C@@H]2O[C@H](COP(=O)(O)OP(=O)(O)O)[C@@H](OP(=O)(O)OP(=O)(O)O)[C@H]2O)c(=O)[nH]1
In words: purified protein. It is filed as biochemical, Arabidopsis thaliana. To be noted: 300 μM MBP-AtYchF1; room temperature; PPi release.

Substrate in data set [3]: Nc1nc2c(ncn2[C@@H]2O[C@H](COP(=O)(O)OP(=O)(O)OP(=O)(O)O)[C@@H](O)[C@H]2O)c(=O)[nH]1
In words: purified protein. It counts as biochemical, Arabidopsis thaliana. To be noted: 300 μM MBP-AtYchF1; Pi release.

With `Nc1nc2c(ncn2[C@@H]2O[C@H](COP(=O)(O)OP(=O)(O)O)[C@@H](OP(=O)(O)OP(=O)(O)O)[C@H]2O)c(=O)[nH]1` [ppGpp], the “competition with Mant-GTP or Mant-ATP, fluorescence 400-500 nm” value at MBP-AtYchF1 was “ppGpp competed well against Mant-GTP and Mant-ATP for the binding of MBP-AtYchF1”.

B1: MBP-AtYchF1 (Arabidopsis thaliana) (protein)
chain: T1 sequence (Q9SA73 1-394)
notes: AtYchF1 cDNA in pMAL-C2, N-terminal MBP tag kept, E. coli BL21 (DE3)
Regarding B1, the Km is 1278 ± 183.8 µM in “purified protein [1]”, 2235 ± 294.3 µM in “purified protein [2]” and 1203 ± 125.5 µM in the data set “purified protein [3]”. The maximal velocity (Vmax) in “purified protein [1]” was determined as 0.0939 µmol/min; in the data set “purified protein [2]”, 0.0349 µmol/min; in the data set “purified protein [3]”, 0.0924 µmol/min.
